Assay results taken from patent US20220289850 (published 2022).
Residue numbers refer to the chain shown, from its start. Each block holds one binder with its values, some of them ahead of it.

Target: T1, cynomolgus integrin avb8 (cynomolgus)
T1 chain 1: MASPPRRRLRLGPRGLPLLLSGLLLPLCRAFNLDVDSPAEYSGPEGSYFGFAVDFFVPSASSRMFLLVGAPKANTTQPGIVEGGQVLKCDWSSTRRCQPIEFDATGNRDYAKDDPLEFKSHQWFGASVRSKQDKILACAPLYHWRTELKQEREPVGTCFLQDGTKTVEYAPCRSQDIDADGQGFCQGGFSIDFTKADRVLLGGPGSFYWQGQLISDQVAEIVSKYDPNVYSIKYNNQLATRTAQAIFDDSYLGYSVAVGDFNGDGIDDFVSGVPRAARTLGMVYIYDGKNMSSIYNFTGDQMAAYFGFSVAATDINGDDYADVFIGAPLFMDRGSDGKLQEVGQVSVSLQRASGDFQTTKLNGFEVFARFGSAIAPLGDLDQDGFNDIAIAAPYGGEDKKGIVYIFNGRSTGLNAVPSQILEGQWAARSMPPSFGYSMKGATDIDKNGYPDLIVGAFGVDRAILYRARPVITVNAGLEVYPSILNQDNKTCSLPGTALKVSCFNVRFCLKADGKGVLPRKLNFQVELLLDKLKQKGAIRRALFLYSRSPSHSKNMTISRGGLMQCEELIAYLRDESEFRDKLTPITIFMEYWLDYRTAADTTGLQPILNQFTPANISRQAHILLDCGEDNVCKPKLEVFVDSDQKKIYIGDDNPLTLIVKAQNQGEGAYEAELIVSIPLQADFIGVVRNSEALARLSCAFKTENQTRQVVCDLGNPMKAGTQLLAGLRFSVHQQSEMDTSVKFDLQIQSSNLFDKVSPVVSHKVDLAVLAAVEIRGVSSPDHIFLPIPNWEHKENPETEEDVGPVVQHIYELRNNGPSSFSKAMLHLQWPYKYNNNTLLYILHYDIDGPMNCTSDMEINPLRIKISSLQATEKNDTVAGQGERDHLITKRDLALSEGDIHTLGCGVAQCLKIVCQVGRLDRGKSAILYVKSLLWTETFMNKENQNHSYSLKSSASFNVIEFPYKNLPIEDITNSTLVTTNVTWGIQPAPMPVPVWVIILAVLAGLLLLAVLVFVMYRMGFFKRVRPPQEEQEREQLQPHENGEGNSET
T1 chain 2: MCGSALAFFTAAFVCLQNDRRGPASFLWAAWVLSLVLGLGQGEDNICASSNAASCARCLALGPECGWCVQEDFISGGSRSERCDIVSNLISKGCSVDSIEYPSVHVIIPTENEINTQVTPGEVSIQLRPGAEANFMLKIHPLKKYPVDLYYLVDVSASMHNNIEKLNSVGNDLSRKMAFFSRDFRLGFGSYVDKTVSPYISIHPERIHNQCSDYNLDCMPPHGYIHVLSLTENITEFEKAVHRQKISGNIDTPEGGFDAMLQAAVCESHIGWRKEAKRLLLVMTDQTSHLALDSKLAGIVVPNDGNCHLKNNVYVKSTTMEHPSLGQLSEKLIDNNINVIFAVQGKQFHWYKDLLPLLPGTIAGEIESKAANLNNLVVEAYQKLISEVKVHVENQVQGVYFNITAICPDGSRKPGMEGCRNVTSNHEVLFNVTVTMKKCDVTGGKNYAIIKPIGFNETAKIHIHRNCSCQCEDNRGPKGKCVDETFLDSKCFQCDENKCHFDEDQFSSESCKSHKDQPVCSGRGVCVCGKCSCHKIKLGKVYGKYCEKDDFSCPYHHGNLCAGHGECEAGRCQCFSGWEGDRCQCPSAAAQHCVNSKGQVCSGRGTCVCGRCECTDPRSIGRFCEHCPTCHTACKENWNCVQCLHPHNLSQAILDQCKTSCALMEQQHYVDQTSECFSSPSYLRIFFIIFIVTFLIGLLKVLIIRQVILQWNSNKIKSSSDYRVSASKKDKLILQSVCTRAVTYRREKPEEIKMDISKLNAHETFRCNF
Assay: SPR 25C

Kd: < 0.1 nM
B1: ADWA11 VH05/VK01 (VH05-2_VK01) Fab (antibody, V domains shown)
VH: EVQLVESGGGLVQPGGSLRLSCAASGFNIKDYYMNWVRQAPGKGLEWVGWIDPDNGNTIYDPKFQGRFTISADTSKNSAYLQMNSLRAEDTAVYYCARRLLMDYWGQGTLVTVSS
VL: DIQMTQSPSSLSASVGDRVTITCRSTKSLLHFNGNTYLFWYQQKPGKAPKRLIYYMSNLASGVPSRFSGSGSGTDFTLTISSLQPEDFATYYCMQSLEYPFTFGQGTKVEIK

Kd: < 0.2 nM
B2: ADWA11 2.4 Fab (antibody, V domains shown)
VH: B1 VH with N55Q, D61E
VL: B1 VL with L30S, N58S, M94Q, Q105G

Kd: 0.507 nM
B3: Mouse hybridoma ADWA-11 Fab (antibody, V domains shown)
VH: EVQLQQSGAELVRPGAFVKLSCKASGFNIKDYYMNWVLQRPEQGLEWIGWIDPDNGNTIYDPKFQGKASITADTSSNTAYLQLSSLTSEDTAVYYCARRLLMDYWGQGTSVTVSS
VL: DIVMTQAAPSVPVTPGESVSISCRSTKSLLHFNGNTYLFWFLQRPGQSPQRLIYYMSNLASGVPDRFSGRGSGTDFTLRISRVEAEDVGVYYCMQSLEYPFTFGTGTKLEIK
